In patent US20240247080A1, “GLP1/GIP/NPY2 RECEPTOR TRIPLE AGONISTS” (Boehringer Ingelheim International GmbH, priority 2022, published 2024):
Changes are numbered by the printed parent chain.

B1: Compound 232 (peptide)
peptide: YXEGTFTSDYSIXLEKQAQXAFVEWLIKGGPSYGASLRHYYNWLTRQRY
modifications: Aib at 2, 13, 20; K28 side chain carries C20DA-gGlu-gGlu-gGlu-gGlu-gGlu-gGlu-eLys; C-terminal amide
B2: Compound 233 (peptide)
peptide: B1 peptide with Y33E, G34P
modifications: Aib at 2, 13, 20; K28 side chain carries C20DA-gGlu-gGlu-gGlu-gGlu-gGlu-gGlu-eLys; C-terminal amide
B3: Compound 229 (peptide)
peptide: B1 peptide with Y33S
modifications: Aib at 2, 13, 20; K28 side chain carries C20DA-gGlu-gGlu-gGlu-gGlu-gGlu-OEG-OEG; C-terminal amide
B4: Compound 237 (peptide)
peptide: B1 peptide with Y33E, A35E
modifications: Aib at 2, 13, 20; K28 side chain carries C20DA-gGlu-gGlu-gGlu-gGlu-gGlu-gGlu-eLys; C-terminal amide
B5: Compound 236 (peptide)
peptide: B1 peptide with Y33E
modifications: Aib at 2, 13, 20; NMeR (N-methyl-L-arginine) at 48; K28 side chain carries C20DA-gGlu-gGlu-gGlu-gGlu-gGlu-gGlu-eLys; C-terminal amide
B6: Compound 227 (peptide)
peptide: B1 peptide with Y33E, A35Q
modifications: Aib at 2, 13, 20; K28 side chain carries C20DA-gGlu-gGlu-gGlu-gGlu-gGlu-gGlu-eLys; C-terminal amide
B7: Compound 234 (peptide)
peptide: B1 peptide with Y10L, Y33E
modifications: Aib at 2, 13, 20; K28 side chain carries C20DA-gGlu-gGlu-gGlu-gGlu-Glu-gGlu-eLys (so in the source); C-terminal amide
B8: Compound 238 (peptide)
peptide: B1 peptide with Y33S
modifications: Aib at 2, 13, 20; K28 side chain carries C20DA-gGlu-gGlu-gGlu-gGlu-gGlu; C-terminal amide
B9: Compound 228 (peptide)
peptide: B1 peptide with E24Q, Y33E
modifications: Aib at 2, 13, 20; K28 side chain carries C20DA-gGlu-gGlu-gGlu-gGlu-gGlu-OEG-OEG; C-terminal amide
B10: Compound 241 (peptide)
peptide: B1 peptide with Y33E, A35V
modifications: Aib at 2, 13, 20; K28 side chain carries C20DA-gGlu-gGlu-gGlu-gGlu-gGlu-gGlu-eLys; C-terminal amide
B11: Compound 222 (peptide)
peptide: B1 peptide with Y33E
modifications: Aib at 2, 13, 20; NMeQ (N-methyl-L-glutamine) at 47; K28 side chain carries C20DA-gGlu-gGlu-gGlu-gGlu-gGlu-gGlu-eLys; C-terminal amide

Legend:
Assay in all cases: cell-based or functional assay
[1] = target: GLP-1 receptor (human (printed as hGLP1R), UniProt P43220 24-463)
[2] = target: T1, NPY2 receptor (human (printed as hNPY2R), UniProt P49146 1-381)
T1 sequence (looked up): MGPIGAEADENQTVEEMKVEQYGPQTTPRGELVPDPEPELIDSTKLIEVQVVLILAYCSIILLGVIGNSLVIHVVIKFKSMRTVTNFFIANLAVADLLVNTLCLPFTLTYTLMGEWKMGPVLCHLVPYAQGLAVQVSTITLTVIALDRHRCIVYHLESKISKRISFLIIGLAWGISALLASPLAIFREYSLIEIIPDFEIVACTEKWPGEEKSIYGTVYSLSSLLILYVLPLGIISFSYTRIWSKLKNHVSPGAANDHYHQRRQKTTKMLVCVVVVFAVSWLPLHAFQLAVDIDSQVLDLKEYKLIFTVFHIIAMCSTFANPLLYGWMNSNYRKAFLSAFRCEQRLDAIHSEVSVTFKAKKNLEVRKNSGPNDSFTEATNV

[3] = target: T2, GIP receptor (human (printed as hGIPR), UniProt P48546 22-466)
T2 sequence (looked up): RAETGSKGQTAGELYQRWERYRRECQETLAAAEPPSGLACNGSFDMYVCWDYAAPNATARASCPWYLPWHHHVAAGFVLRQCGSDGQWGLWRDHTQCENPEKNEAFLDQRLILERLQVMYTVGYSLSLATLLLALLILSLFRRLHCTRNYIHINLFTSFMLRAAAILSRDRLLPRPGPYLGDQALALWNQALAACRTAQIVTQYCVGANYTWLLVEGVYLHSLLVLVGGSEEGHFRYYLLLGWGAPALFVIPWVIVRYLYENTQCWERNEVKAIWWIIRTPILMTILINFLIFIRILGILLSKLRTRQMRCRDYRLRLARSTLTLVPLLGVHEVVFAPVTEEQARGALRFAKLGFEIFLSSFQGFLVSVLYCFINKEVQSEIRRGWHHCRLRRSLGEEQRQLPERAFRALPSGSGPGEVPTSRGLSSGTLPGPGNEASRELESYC

| Binder | EC50 hGLP1R 0.5% hP (CreLuc) [1] [nM] | EC50 hGLP1R 100% hP (CreLuc) [1] [nM] | EC50 hNPY2R 0.5% hP (CreLuc) [2] [nM] | EC50 hNPY2R 100% hP (CreLuc) [2] [nM] | EC50 hGIPR 0.5% hP (CreLuc) [3] [nM] | EC50 hGIPR 100% hP (CreLuc) [3] [nM] |
| --- | --- | --- | --- | --- | --- | --- |
| B1 | 0.21 | 4.88 | 15.3 | 36.8 | 0.19 | 1.64 |
| B2 | 0.17 | 1.7 | 12.6 | 27.1 | 0.08 | 0.75 |
| B3 | 0.1 | 3.31 | 10.8 | 27.2 | 0.22 | 1.42 |
| B4 | 0.26 | 3.11 | 18 | 45.5 | 0.1 | 1.17 |
| B5 | 0.26 | 3.42 | 31 | 86.6 | 0.3 | 1.41 |
| B6 | 0.13 | 3.07 | 10.2 | 44.2 | 0.06 | 1.23 |
| B7 | 0.35 | 2.66 | 25.1 | 48.1 | 0.74 | 3.27 |
| B8 | 0.1 | 2.55 | 11.6 | 49.4 | 0.52 | 1.59 |
| B9 | 0.12 | 4.18 | 9.6 | 30.1 | 0.23 | 1.52 |
| B10 | 0.77 | 9.65 | 16.6 | 34.1 | 0.69 | 4.36 |
| B11 | 0.24 | 4.43 | 13.3 | 41.6 | 0.19 | 1.85 |
